This data set concerns the molecule itself. Nature of the data set: dynamic light scattering.

B1: LRS peptide N_(210-246):G214C (peptide)
peptide: MAGNCGDAALALLLLDRLNQLESKMSGKGQQQQGQTV
notes: also called N_(LRS, 210-246):G214C; G214C cysteine mutant LRS peptide
For the protein B1, the binding result is “binds”.

For the origin of these results see PMC12753105, “Evolution of a fuzzy ribonucleoprotein complex in viral assembly” (eLife, 2025).
